Data reported in patent publication US20120077731A1 (Ablynx, published 2012).
“And” between values parts separate entries of the source, which are not always exact repeats. Identical values can stand only once.

B2: Cyno IL-6R (receptor, cynomolgus monkey)
chain: EVARGVLTSLPGDSVTLTCPGGEPEDNATVHWVLRKPAEGSHLSRWAGVGRRLLLRSVQLHDSGNYSCYRAGRPAGTVHLLVDVPPEEPQLSCFRKSPLSNVVCEWGPRSTPSPTTKAVLLVRKFQNSPAEDFQEPCQYSQESQKFSCQLAVPEGDSSFYIVSMCVASSVGSKLSKTQTFQGCGILQPDPPANITVTAVARNPRWLSVTWQDPHSWNSSFYRLRFELRYRAERSKTFTTWMVKDLQHHCVIHDAWSGLRHVVQLRAQEEFGQGEWSEWSPEAMGTPWTESRSPPAENEVSTPTQAPTTNKDDDNILSGDSANATSLPVQDSSSVPLP
notes: also called cynomolgus monkey IL-6R; recombinant cyno sIL-6R

Columns and labels:
Human soluble IL-6R [1] = molecular target: T1, Human soluble IL-6R (human, UniProt P08887 20-358); assay: Alphascreen IL-6/IL-6R competition (IL-6R 0.3 nM, bio-IL-6 3 nM); row EC50 of the fit table, axis [competitor], M; blocked ligand IL-6
T1 construct: Soluble recombinant form; biotinylated in some assays; also called hIL-6R; human IL-6R
T1 sequence (looked up): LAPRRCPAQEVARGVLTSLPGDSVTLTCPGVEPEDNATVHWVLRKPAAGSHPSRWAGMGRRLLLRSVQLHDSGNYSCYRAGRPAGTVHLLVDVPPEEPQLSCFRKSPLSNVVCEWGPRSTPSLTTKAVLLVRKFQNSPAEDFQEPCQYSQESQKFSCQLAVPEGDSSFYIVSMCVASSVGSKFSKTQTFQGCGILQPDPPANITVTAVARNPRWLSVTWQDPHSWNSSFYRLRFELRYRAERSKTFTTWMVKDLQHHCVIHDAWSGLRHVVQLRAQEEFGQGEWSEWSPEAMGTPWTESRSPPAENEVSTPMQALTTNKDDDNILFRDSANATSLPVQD

[2] = molecular target: T2, Human membrane IL-6R on cells (human, UniProt P08887 20-468); assay: cell-based or functional assay
T2 sequence (looked up): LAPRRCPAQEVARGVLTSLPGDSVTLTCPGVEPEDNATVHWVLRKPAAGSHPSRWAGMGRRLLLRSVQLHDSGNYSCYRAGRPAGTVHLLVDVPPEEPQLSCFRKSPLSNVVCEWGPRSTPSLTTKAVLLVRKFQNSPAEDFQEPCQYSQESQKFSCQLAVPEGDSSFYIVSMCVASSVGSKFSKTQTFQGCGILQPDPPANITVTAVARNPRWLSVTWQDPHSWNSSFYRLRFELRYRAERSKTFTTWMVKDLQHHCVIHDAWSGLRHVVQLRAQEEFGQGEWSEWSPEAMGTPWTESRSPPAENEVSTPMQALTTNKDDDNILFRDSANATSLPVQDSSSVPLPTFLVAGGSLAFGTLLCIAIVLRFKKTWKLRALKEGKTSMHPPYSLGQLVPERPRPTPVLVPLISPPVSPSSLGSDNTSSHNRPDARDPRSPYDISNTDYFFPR

Human soluble IL-6R [3] = molecular target: T1, Human soluble IL-6R; assay: Biacore, binding to IL-6R (parent value)
[4] = molecular target: T2, Human membrane IL-6R on cells; assay: cell-based or functional assay; remark: listed apart in the source
Human soluble IL-6R [5] = molecular target: T1, Human soluble IL-6R; assay: summary table C-13 of Nanobody characteristics, Kd on IL-6R
Method: (§1) Nanobodies were injected at 5 different concentrations between 1 and 50 nM. Flow rate was 45 μl/min in all experiments. Association and dissociation phase were 3 and 10 min, respectively. The chip was regenerated using Glycine/HCl pH 1.5.

Human soluble IL-6R [6] = molecular target: T1, Human soluble IL-6R; assay: SPR Biacore 3000, IL-6R amine-coupled to CM5
Method: as §1

Mouse IL-6R = molecular target: T3, Mouse IL-6R (mouse, UniProt P22272 20-364, limits assumed); assay: ELISA: plate coated with 1 µg/ml mouse IL-6R, 500 nM Nanobody, anti-myc + anti-mouse-HRP
T3 construct: also called mouse sIL-6R
T3 sequence (looked up): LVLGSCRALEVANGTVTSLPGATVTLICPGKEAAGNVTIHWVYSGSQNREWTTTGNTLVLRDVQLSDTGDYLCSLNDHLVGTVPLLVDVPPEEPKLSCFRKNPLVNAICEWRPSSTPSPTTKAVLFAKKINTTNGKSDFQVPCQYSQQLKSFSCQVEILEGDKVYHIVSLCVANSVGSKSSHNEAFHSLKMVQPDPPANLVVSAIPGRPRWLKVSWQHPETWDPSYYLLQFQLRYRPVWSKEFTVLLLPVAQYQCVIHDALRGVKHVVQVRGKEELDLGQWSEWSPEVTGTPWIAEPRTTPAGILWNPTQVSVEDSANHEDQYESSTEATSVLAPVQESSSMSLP
Method: Detection was performed with anti-myc and anti-mouse-HRP as first and second antibody respectively.

Human soluble IL-6R [7] = molecular target: T1, Human soluble IL-6R; assay: Alphascreen IL-6/IL-6R competition with purified Nanobody; row EC50 of the table, axis [inhibitor], M; blocked ligand IL-6
[8] = molecular target: T2, Human membrane IL-6R on cells; assay: cell-based or functional assay; remark: listed apart in the source
Human soluble IL-6R [9] = molecular target: T1, Human soluble IL-6R; assay: competition for IL-6R, competitor reference Fab, summary table C-13
Human soluble IL-6R [10] = molecular target: T1, Human soluble IL-6R; assay: Alphascreen, 100 nM Nanobody, 0.4 nM bio-IL-6R; competitor: reference Fab
Human soluble IL-6R [11] = molecular target: T1, Human soluble IL-6R; assay: Biacore off-rate, periplasmic extract
Human soluble IL-6R [12] = molecular target: T1, Human soluble IL-6R; assay: Alphascreen, inhibition of bio-IL-6 binding to IL-6R
Method: (§2) Finally streptavidin donor beads were added and after 1 hour incubator the plate was read on the Envision microplate reader.

Human soluble IL-6R [13] = molecular target: T1, Human soluble IL-6R; assay: inhibition of the IL-6/IL-6R interaction, summary table C-13
Method: as §2

[14] = molecular target: T2, Human membrane IL-6R on cells; assay: cell-based or functional assay; remark: listed apart in the source
Human soluble IL-6R [15] = molecular target: T1, Human soluble IL-6R; assay: Biacore off-rate, periplasmic extracts
PMP20A11 = molecular target: T4, PMP20A11; assay: competition ELISA: IL6R20A11 (0.4 nM) pre-incubated with a series of recombinant sIL-6R; free IL6R20A11 captured on biotinylated human sIL-6R on neutravidin
T4 construct: also called IL6R20A11; IL6R300; not shown: c-myc and (His)6 tags

Cyno plasma sIL-6R [16] = molecular target: T5, Cyno plasma sIL-6R (cynomolgus monkey, UniProt A0A2K5WN54 60-396); assay: plasma potency assay, cyno plasma ([IL6R]: ~0.4 nM, [IL6]: 2.4 nM printed); sIL-6R captured on BN-12, bound IL-6 detected; blocked ligand IL-6
T5 construct: also called cynomolgus sIL-6R
T5 sequence: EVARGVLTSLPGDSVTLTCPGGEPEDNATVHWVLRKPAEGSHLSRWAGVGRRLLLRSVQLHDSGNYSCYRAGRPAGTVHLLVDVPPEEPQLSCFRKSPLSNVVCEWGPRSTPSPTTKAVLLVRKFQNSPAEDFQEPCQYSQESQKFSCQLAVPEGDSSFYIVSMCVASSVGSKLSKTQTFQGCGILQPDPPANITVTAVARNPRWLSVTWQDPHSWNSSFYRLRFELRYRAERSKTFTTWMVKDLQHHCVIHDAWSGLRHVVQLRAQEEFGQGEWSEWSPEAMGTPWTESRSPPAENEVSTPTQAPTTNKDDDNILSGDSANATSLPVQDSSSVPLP

Human soluble IL-6R [17] = molecular target: T1, Human soluble IL-6R; assay: Biacore T100, IL-6R captured via mAb BN-12
Human plasma sIL-6R [18] = molecular target: T6, Human plasma sIL-6R (human, UniProt P08887 20-355, limits assumed); assay: plasma potency assay, human plasma, 2.4 nM IL6; blocked ligand IL-6
T6 construct: also called plasma-derived human IL-6R
T6 sequence (looked up): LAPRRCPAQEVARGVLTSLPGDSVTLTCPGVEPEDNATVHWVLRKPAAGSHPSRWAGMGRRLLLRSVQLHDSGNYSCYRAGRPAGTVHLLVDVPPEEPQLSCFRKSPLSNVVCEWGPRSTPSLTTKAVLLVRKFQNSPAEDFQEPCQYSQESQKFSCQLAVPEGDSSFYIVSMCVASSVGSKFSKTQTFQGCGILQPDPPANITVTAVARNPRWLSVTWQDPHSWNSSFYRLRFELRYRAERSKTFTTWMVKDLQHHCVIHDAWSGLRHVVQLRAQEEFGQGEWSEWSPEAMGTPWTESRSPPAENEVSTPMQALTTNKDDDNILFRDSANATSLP
Method: (§3) All 5 affinity matured Nanobodies and the sequence optimized Nanobody were also tested in a plasma potency assay. […] TMB was used as substrate.

Human soluble IL-6R [19] = molecular target: T1, Human soluble IL-6R; assay: SPR Biacore 3000, human IL-6R amine-coupled to CM5
Method: Remaining reactive groups were inactivated. Nanobody binding was assessed at various concentrations ranging from 0.5 to 50 nM. Each sample was injected for 4 min at a flow rate of 45 μl/min to allow for binding to chip-bound antigen. Next, binding buffer without Nanobody was sent over the chip at the same flow rate to allow for dissociation of bound Nanobody.

Human plasma sIL-6R [20] = molecular target: T6, Human plasma sIL-6R; assay: plasma potency ELISA, human plasma, IL-6 at EC95 (885 ng/mL)
Human plasma sIL-6R [21] = molecular target: T6, Human plasma sIL-6R; assay: plasma potency ELISA, human plasma, IL-6 at EC50 (50 ng/mL)
Human soluble IL-6R [22] = molecular target: T1, Human soluble IL-6R; assay: SPR (Biacore), binding curves at several concentrations of purified Nanobody on IL-6R
Human soluble IL-6R [23] = molecular target: T1, Human soluble IL-6R; assay: Biacore T100
Cyno IL-6R = molecular target: B2; assay: SPR Biacore 3000, cyno IL-6R amine-coupled to CM5
Method: Remaining reactive groups were inactivated. […] Each sample was injected for 4 min at a flow rate of 45 μl/min to allow for binding to chip-bound antigen. Next, binding buffer without Nanobody was sent over the chip at the same flow rate to allow for dissociation of bound Nanobody.

Human plasma sIL-6R [24] = molecular target: T6, Human plasma sIL-6R; assay: plasma potency assay, human plasma ([IL6R]: ~0.4 nM, [IL6]: 2.4 nM printed); sIL-6R captured on BN-12, bound IL-6 detected; blocked ligand IL-6
Human plasma sIL-6R [25] = molecular target: T6, Human plasma sIL-6R; assay: plasma potency assay, human plasma, 42 nM IL6; blocked ligand IL-6
Method: as §3

Human plasma sIL-6R [26] = molecular target: T6, Human plasma sIL-6R; assay: plasma potency ELISA, human plasma + human IL-6 50 ng/mL; sIL-6R captured on BN-12, bound IL-6 detected; blocked ligand IL-6
Human soluble IL-6R [27] = molecular target: T1, Human soluble IL-6R; assay: Biacore T100, IL-6R covalently coupled
Cyno plasma sIL-6R [28] = molecular target: T5, Cyno plasma sIL-6R; assay: plasma potency ELISA, cyno plasma + human IL-6 50 ng/mL; sIL-6R captured on BN-12, bound IL-6 detected; blocked ligand IL-6
Cyno plasma sIL-6R [29] = molecular target: T5, Cyno plasma sIL-6R; assay: plasma potency assay, cyno plasma, 2.4 nM IL6; blocked ligand IL-6
Method: as §3

Human plasma sIL-6R [30] = molecular target: T6, Human plasma sIL-6R; assay: plasma potency assay, human plasma, 42 nM IL6; sIL-6R captured on BN-12, bound IL-6 detected; blocked ligand IL-6

B1: IL6R13 (VHH)
VHH: EVQLVESGGGLVQPGGSLRLSCAASGFTFDDYGMSWVRQAPGRATEWVSAISWNGNNTYYTESMKGRFTISRDNAKNTVYLQMNSLKPEDTAVYYCVKGSTAIVGVPPTYPDEYDYWGQGTQVTVSS
notes: also called PMP35H4; not shown: C-terminal c-myc and (His)6 tags
IC50 (Human soluble IL-6R [1]): 0.0644 nM | IC50 (nM), TF1 cell proliferation [2]: 5.2 nM | Kd (Human soluble IL-6R [3]): 0.7 nM | IC50 (nM) XG-1 [4]: 1.4 nM | Kd (Human soluble IL-6R [5]): 0.5 nM | Kd (Human soluble IL-6R [6]): 0.5 nM and 0.8 nM | koff (Human soluble IL-6R [6]): 0.000121 s⁻¹ and 0.000109 s⁻¹ and 0.000178 s⁻¹ | kon (Human soluble IL-6R [6]): 231000 M⁻¹ s⁻¹ and 137000 M⁻¹ s⁻¹ | binding result (Mouse IL-6R): no binding (tested: 500 nM) | IC50 (Human soluble IL-6R [7]): 0.0505 nM | IC50 (nM) + HSA, XG-1 cell proliferation [8]: 1.3 nM | IC50 (nM), XG-1 cell proliferation [8]: 1.4 nM | Ref Fab competition (%) (Human soluble IL-6R [9]): 25% | Residual reference-Fab binding to IL-6R (%) (Human soluble IL-6R [10]): 25% | koff (Human soluble IL-6R [11]): 0.000178 s⁻¹ | IC50 (Human soluble IL-6R [12]): 0.0477 nM | IC50 (Human soluble IL-6R [13]): 0.05 nM | IC50 values (nM), XG-1 assay [14]: 1.4 nM | koff (Human soluble IL-6R [15]): 0.00021 s⁻¹

B2
IC50 (read off the curve) (PMP20A11): ~3 ng/mL

B3: IL6R65 (VHH)
VHH: EVQLVESGGGLVQPGGSLRLSCAASGSIFKVNAMGWYRQAPGKGRELVAGIISGGSTNYADSVKGRFTISRDNAKNTLYLQMNSLRPEDTAVYYCAFVTTNSDYDLGRDYWGQGTLVTVSS
notes: also called ILR65; parent Nanobody
IC50 (Cyno plasma sIL-6R [16]): 2.99 nM | kon (Human soluble IL-6R [17]): 1e+06 M⁻¹ s⁻¹ | IC50 (Human plasma sIL-6R [18]): 1.9 nM | Kd (Human soluble IL-6R [19]): 4 nM | koff (Human soluble IL-6R [19]): 0.00235 s⁻¹ | kon (Human soluble IL-6R [19]): 600000 M⁻¹ s⁻¹ | IC50 (Human plasma sIL-6R [20]): 66.2 nM | IC50 (Human plasma sIL-6R [21]): 2.61 nM | IC50 (Human soluble IL-6R [7]): 0.147 nM | Kd (Human soluble IL-6R [22]): 4.3 nM | Kd (Human soluble IL-6R [23]): 3.8 nM | Kd (Cyno IL-6R): 12 nM | koff (Cyno IL-6R): 0.00197 s⁻¹ | kon (Cyno IL-6R): 165000 M⁻¹ s⁻¹ | IC50 (Human plasma sIL-6R [24]): 4.93 nM | IC50 (Human plasma sIL-6R [25]): 24.8 nM | IC50 (read off the curve) (Human plasma sIL-6R [26]): ~0.7 nM | koff (Human soluble IL-6R [27]): 0.0038 s⁻¹ | IC50 (read off the curve) (Cyno plasma sIL-6R [28]): ~0.1 nM | IC50 (Cyno plasma sIL-6R [29]): 0.9 nM | IC50 values (nM), XG-1 assay [14]: 26 nM | IC50 (Human plasma sIL-6R [30]): 61.5 nM
